From US20240076389A1 (NATIONAL RESEARCH COUNCIL OF CANADA, published 2024) come the findings set out here.

In assay [1] the target is T1, cyAXL-ECD displayed on yeast.
T1 construct: extracellular domain; 'cy' read as cynomolgus
Briefly: yeast surface display ELISA, non-denatured yeast, goat anti-human F(ab')2-HRP.

In assay [2] the target is T2, huTyro3-ECD displayed on yeast (human, UniProt Q06418 41-429).
T2 construct: extracellular domain
T2 sequence (looked up): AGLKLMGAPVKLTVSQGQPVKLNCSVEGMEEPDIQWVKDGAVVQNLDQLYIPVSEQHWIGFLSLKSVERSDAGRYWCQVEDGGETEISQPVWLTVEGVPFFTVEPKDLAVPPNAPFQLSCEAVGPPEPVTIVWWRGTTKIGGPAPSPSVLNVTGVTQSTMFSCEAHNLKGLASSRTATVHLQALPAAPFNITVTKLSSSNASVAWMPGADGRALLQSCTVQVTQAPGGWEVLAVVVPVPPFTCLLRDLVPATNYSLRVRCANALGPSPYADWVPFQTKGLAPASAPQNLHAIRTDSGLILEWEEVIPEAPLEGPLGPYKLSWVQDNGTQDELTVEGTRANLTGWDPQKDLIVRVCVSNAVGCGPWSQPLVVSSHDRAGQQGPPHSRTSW
The description is as above.

The target in assay [3] is T3, AXL fragment # 3 (AXL amino acids 26-138, IgL1).
T3 chain: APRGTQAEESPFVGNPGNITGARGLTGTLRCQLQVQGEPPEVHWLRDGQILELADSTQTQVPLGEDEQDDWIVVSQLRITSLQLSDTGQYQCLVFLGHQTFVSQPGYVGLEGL
In words: yeast surface display of hAXL fragments, whole yeast cell ELISA, signal normalised to anti-MYC. The text has this: (§1) Epitope mapping. […] The YSD vector (pPNL6) was from The Pacific Northwest National Laboratory, USA.

Assay [4] has as its target T4, AXL fragment # 1 (AXL amino acids 135-226, IgL2).
T4 chain: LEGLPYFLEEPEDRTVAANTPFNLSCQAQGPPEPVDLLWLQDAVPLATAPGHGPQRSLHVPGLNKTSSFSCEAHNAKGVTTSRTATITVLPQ
In words: yeast surface display of hAXL fragments (Aga2-HA-(hAXL)-MYC), whole yeast cell ELISA, signal normalised to anti-MYC.
Source text: as §1

For assay [5], the target named is T5, AXL fragment # 7 (AXL amino acids 135-335, IgL2+FN III-1).
T5 chain: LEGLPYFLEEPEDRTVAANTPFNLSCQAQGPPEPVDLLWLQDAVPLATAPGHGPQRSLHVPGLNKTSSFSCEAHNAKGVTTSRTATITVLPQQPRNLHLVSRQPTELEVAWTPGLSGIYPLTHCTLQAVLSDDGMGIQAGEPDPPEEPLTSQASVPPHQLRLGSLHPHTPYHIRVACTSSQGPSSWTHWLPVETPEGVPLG
Described as above.
Source text: as §1

Assay [6] concerns the target T6, recombinant human AXL extracellular domain, C-terminally His8-tagged (rhAXL-ECD) (human, UniProt P30530 26-451).
T6 construct: Made in CHO cells; also called (rh)AXL-ECD His8; human AXL ECD
T6 sequence: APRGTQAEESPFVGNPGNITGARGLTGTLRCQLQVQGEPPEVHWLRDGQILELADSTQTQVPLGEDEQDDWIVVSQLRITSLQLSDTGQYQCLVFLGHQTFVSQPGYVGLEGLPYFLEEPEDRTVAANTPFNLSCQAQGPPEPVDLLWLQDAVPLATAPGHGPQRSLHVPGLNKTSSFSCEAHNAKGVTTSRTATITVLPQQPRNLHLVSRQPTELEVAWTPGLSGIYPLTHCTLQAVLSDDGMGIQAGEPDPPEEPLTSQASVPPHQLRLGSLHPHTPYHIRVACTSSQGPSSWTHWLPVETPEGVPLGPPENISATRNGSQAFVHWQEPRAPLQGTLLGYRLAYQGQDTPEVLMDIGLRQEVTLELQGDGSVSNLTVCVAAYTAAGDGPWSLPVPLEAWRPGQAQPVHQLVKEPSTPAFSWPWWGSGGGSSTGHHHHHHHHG
In words: SPR Biacore T200, mAb captured on anti-Fc, AXL ECD flowed, single-cycle kinetics. The method, boiled down:
(§2)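 Murine or chimeric mAbs captured on immobilized anti-mouse or anti-human Fc (CM5 chip); human or cyno AXL ECD flowed at 0.1-500 nM depending on antibody. PBS/Tween-20 running buffer, 100 uL/min, 25° C; regeneration with 10 mM glycine pH 1.5.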

Assay [7] deals with T7, recombinant cynomolgus AXL extracellular domain (cynomolgus).
T7 construct: range 1-449; also called Cyno AXL; cyno AXL ECD
The description is as above. The method, boiled down: as §2

B1: NRC-sdAb001-Fc (VHH-human IgG1 Fc fusion) (Fc fusion)
chain: QVKLEESGGGLVQAGGSLRLSCTASASISSFDIMGWYRQAPGKQRELVAAITTLDIANYRDSVKGRFTISRDNAKNTVYLQMDSLKPEDTARYHCAAFQSDQNYWGQGTQVTVSS
notes: VHH fused N-terminally to human IgG1 Fc, made in HEK293 cells; also called NRC-sdAb0001-Fc; NRC-sdAb001-hIgG1; not shown: human IgG1 Fc
Regarding B1, the “yeast ELISA signal normalized to myc expression level” value (“yeast ELISA signal normalized” below) in assay [1] came to 0.824; in assay [2], 0.017.

B2: F111-5E9 (antibody, V domains shown)
VH: QIQLVQSGPELKKPGETVKISCKASGYTFTKYGMNWVKQAPGKGLKWMGWINTYTGEPTYADDFKGRFAFSLETSASTAYLQINNLTTEDMVTYFCAKGGYYSNPIYPMDYWGQGTSVTVSS
VL: DIQMTQTTSSLSASLGDRVTISCRASQDINNYLNWYQQKPDGTVKLLIYYISRLHSGVPSRFSGSGSGTDYSLTISNLELEDVATYFCQQGNTLPFTFGSGTKLEIK
notes: also called F111-5E9-2; mAb 5E9
B2: the binding result in assay [3] was “no binding”; in assay [4], “binds”; in assay [5] it was “binds”.

B3: hFC-F107-10G1 (antibody, human IgG1, kappa, V domains shown)
VH: EVNLVESGGGVVKPGASLKLSCEASGFTFSNYGMSWVRQTSDKRLEWVASISGGGGRTYYLDNVKGRFIISRENAKNTLYLQMSSLKSEDTALFYCARGARASYFAMDYWGQGSSVTVSS
VL: VIVMTQSHKFMSTSVGDRVSITCKASQDVTTAVAWYQQKPGQSPKLLIYWASTRHTGVPDRFTGSGSGTDYSLTISNVQTEDLAFYYCQQHFTTPLTFGAGTKLELKR
notes: Chimeric mAb, human IgG1 / human kappa constant regions; also called mAb F107-10G1
As to B3, the “yeast ELISA signal normalized” value in assay [1] came out at 1.14. For the same molecule, in assay [2], the “yeast ELISA signal normalized” value was -0.023. For the same molecule, in assay [6], the Kd was 0.5 nM and the kon was determined as 1.1e+06 M⁻¹ s⁻¹. For the same molecule, in assay [7], the Kd worked out at 0.5 nM, the dissociation rate constant (koff) stood at 0.00043 s⁻¹ and the on-rate (kon) came out at 820000 M⁻¹ s⁻¹.

B4: F111-3C8 (antibody, V domains shown)
VH: QVQLQQPGAELGKPGTSVKLSCKASGYTFTSYWMHWVKRVPGQGLEWIGNINPNSTSADYNEKFKRKATLTVDKSSSTAYMQLSTLTSEDSAVYYCTRPLMGPYWYFDVWGTGTTVTVSS
VL: QIVLTQSPAIMSASPGEKVTISCSASSSVSYMYWYQQKPGSSPKPWIYRTSNLASGVPARFSGSGSGTSYSLTISSMEAEDAATYYCQQYHNYPPTFGGGTKLEIK
notes: also called F111-3C8-2
With B4, the binding result is “no binding” in assay [3], “binds” in assay [4] and “binds” in assay [5].
